Assay results as given in the supplement of paper PMC11780869.

System: Bacillus subtilis
Test: cleaved RNA product abundance (RNA/gDNA barcode ratio) relative to median wild-type variant (ratio to wild type); higher = more accumulation of the downstream cleavage product
Settings: cleavage site: cggR-gapA (positions -7 to +36 mutated)
Outline: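 B. subtilis strains with chromosomally integrated reporter mRNAs (truncated aprE or tetM) holding barcoded, mutagenized RNase Y cleavage-site windows grew in LB at 37°C from OD600 0.0003 to 0.3. Cleaved product abundance is each construct's RNA:gDNA barcode ratio, scaled to the median construct with the unmutated site. It came from sequencing barcodes of gel-selected, reverse-transcribed cleaved RNA and of genomic DNA.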

[1] = experiment (reporter, strain, medium): exp 2b: truncated aprE reporter, strain BJT200
[2] = experiment (reporter, strain, medium): exp 4a: truncated aprE reporter, strain BJT201 with 2% xylose (RNase J1 expressed)
[3] = experiment (reporter, strain, medium): exp 6: tetM reporter, strain 168

Row | Sequence | cleaved RNA product abundance [1] | cleaved RNA product abundance [2] | cleaved RNA product abundance [3]
1 | ACAGACGAAGGAGCCGCAAAGAAGTTATTAAGAGATGAATAATCACTCAATATAAATATCTCTCACTTATTTAAA | 0.0955 | 0.127 | –
2 | ACAGACGAAGGAGCCGCAAAGAAGTTATTAAGAGATGAATAATCCATCAATATAAATATCTCTCACTTATTTAAA | 0.142 | 0.19 | –
3 | ACAGACGAAGGAGCCGCAAAGAAGTTATTAAGAGATGAATAATCCCACAATATAAATATCTCTCACTTATTTAAA | 0.0945 | 0.1 | –
4 | ACAGACGAAGGAGCCGCAAAGAAGTTATTAAGAGATGAATAATCCCGCAATATAAATATCTCTCACTTATTTAAA | – | 0.154 | –
5 | ACAGACGAAGGAGCCGCAAAGAAGTTATTAAGAGATGAATAATCCCTAAATATAAATATCTCTCACTTATTTAAA | 0.141 | 0.158 | 0.179
6 | ACAGACGAAGGAGCCGCAAAGAAGTTATTAAGAGATGAATAATCCCTCAAAATAAATATCTCTCACTTATTTAAA | 0.101 | 0.106 | –
7 | ACAGACGAAGGAGCCGCAAAGAAGTTATTAAGAGATGAATAATCCCTCAACATAAATATCTCTCACTTATTTAAA | 0.111 | 0.132 | –
8 | ACAGACGAAGGAGCCGCAAAGAAGTTATTAAGAGATGAATAATCCCTCAAGATAAATATCTCTCACTTATTTAAA | – | 0.112 | –
9 | ACAGACGAAGGAGCCGCAAAGAAGTTATTAAGAGATGAATAATCCCTCAATAAAAATATCTCTCACTTATTTAAA | – | 0.113 | –
10 | ACAGACGAAGGAGCCGCAAAGAAGTTATTAAGAGATGAATAATCCCTCAATATAAAAATCTCTCACTTATTTAAA | 0.103 | 0.181 | –
11 | ACAGACGAAGGAGCCGCAAAGAAGTTATTAAGAGATGAATAATCCCTCAATATAAAGATCTCTCACTTATTTAAA | – | 0.186 | –
12 | ACAGACGAAGGAGCCGCAAAGAAGTTATTAAGAGATGAATAATCCCTCAATATAAATACCTCTCACTTATTTAAA | – | 0.126 | –
13 | ACAGACGAAGGAGCCGCAAAGAAGTTATTAAGAGATGAATAATCCCTCAATATAAATAGCTCTCACTTATTTAAA | – | 0.106 | –
14 | ACAGACGAAGGAGCCGCAAAGAAGTTATTAAGAGATGAATAATCCCTCAATATAAATATATCTCACTTATTTAAA | – | 0.193 | –
15 | ACAGACGAAGGAGCCGCAAAGAAGTTATTAAGAGATGAATAATCCCTCAATATAAATATCTCTCACTATTTAAAG | – | 0.151 | –
16 | ACAGACGAAGGAGCCGCAAAGAAGTTATTAAGAGATGAATAATCCCTCAATATAAATATCTCTCACTTATTTAAA | 0.111 | 0.147 | 0.135

Row | Sequence | cleaved RNA product abundance [1] | cleaved RNA product abundance [2] | cleaved RNA product abundance [3]
17 | ACAGACGAAGGAGCCGCAAAGAAGTTATTAAGAGATGAATAATCCCTCAATATAAATGTCTCTCACTTATTTAAA | – | 0.0916 | –
18 | ACAGACGAAGGAGCCGCAAAGAAGTTATTAAGAGATGAATAATCCCTCAATATAAATTTCTCTCACTTATTTAAA | – | 0.164 | –
19 | ACAGACGAAGGAGCCGCAAAGAAGTTATTAAGAGATGAATAATCCCTCAATATAACTATCTCTCACTTATTTAAA | – | 0.0935 | –
20 | ACAGACGAAGGAGCCGCAAAGAAGTTATTAAGAGATGAATAATCCCTCAATATAATTATCTCTCACTTATTTAAA | – | 0.118 | –
21 | ACAGACGAAGGAGCCGCAAAGAAGTTATTAAGAGATGAATAATCCCTCAATATACATATCTCTCACTTATTTAAA | 0.102 | 0.136 | –
22 | ACAGACGAAGGAGCCGCAAAGAAGTTATTAAGAGATGAATAATCCCTCAATATAGATATCTCTCACTTATTTAAA | – | 0.147 | –
23 | ACAGACGAAGGAGCCGCAAAGAAGTTATTAAGAGATGAATAATCCCTCAATATATATATCTCTCACTTATTTAAA | 0.129 | 0.14 | –
24 | ACAGACGAAGGAGCCGCAAAGAAGTTATTAAGAGATGAATAATCCCTCAATCTAAATATCTCTCACTTATTTAAA | – | 0.0377 | –
25 | ACAGACGAAGGAGCCGCAAAGAAGTTATTAAGAGATGAATAATCCCTCAATGTAAATATCTCTCACTTATTTAAA | 0.0969 | 0.0609 | –
26 | ACAGACGAAGGAGCCGCAAAGAAGTTATTAAGAGATGAATAATCCCTCAATTTAAATATCTCTCACTTATTTAAA | 0.0971 | 0.0573 | –
27 | ACAGACGAAGGAGCCGCAAAGAAGTTATTAAGAGATGAATAATCCCTCACTATAAATATCTCTCACTTATTTAAA | – | 0.131 | –
28 | ACAGACGAAGGAGCCGCAAAGAAGTTATTAAGAGATGAATAATCCCTCATTATAAATATCTCTCACTTATTTAAA | – | 0.177 | –
29 | ACAGACGAAGGAGCCGCAAAGAAGTTATTAAGAGATGAATAATCCCTCCATATAAATATCTCTCACTTATTTAAA | 0.0792 | – | –
30 | ACAGACGAAGGAGCCGCAAAGAAGTTATTAAGAGATGAATAATCCCTCGATATAAATATCTCTCACTTATTTAAA | – | 0.0848 | –
31 | ACAGACGAAGGAGCCGCAAAGAAGTTATTAAGAGATGAATAATCCCTCTATATAAATATCTCTCACTTATTTAAA | – | 0.118 | –
